Data reported in US20240034804A1 (BIORAY PHARMACEUTICAL, published 2024).

Experiments:
[1] = target: SIRPα protein (Acrobiosystems, Cat. No. SIA-H5225), V1 genotype (human) (UniProt P78324); test: BLI (Octet Red96), SIRPα captured on H1S1K biosensor, antibody as analyte, 1:1 fit
[2] = target: T1, biotin-labeled SIRPα (Acrobiosystems, Cat. No. CDA-H82F2), V1 genotype (human, UniProt P78324 31-370, biotin-labeled (site not stated)); test: competition ELISA, blocking of biotin-labeled SIRPα binding to coated CD47-Fc (competitor CD47-Fc)
T1 construct: Bought protein; also called SIRPα (V1)
Method: (§1) 96-well plates were coated with CD47-Fc (manufacturer: Acrobiosystems, Cat. No. CD7-H5256) at 4° C. overnight. Plates were washed and blocked with 1% BSA-PBST blocking solution. […] After a 1 h incubation at 37° C., plates were washed and HRP-labeled streptavidin (manufacturer: Abcam, Cat. No.: ab7403) was added. After a 0.5 h incubation at 37° C., plates were washed and TMB solution was added. After a 0.5 h incubation at room temperature in the dark, the reaction was terminated by adding 2 N H₂SO₄. Absorbance was read at 450 nm on a microplate reader. IgG (manufacturer: GenScript) was used as the control.

[3] = target: T2, SIRPα protein (Acrobiosystems, Cat. No. SIA-H5225), V1 genotype (human, UniProt P78324 31-370); test: ELISA, coated SIRPα (SIA-H5225)
T2 construct: Bought protein; also called recombinant SIRPα protein; antigen SIRPα
Method: The plates were then blocked with 1% BSA-PBS blocking solution for 1 h at 37° C. Plates were washed with PBST. The humanized antibodies were diluted to different concentrations (3-fold serially diluted from 66.7 nM, 11 concentration gradients in total) and added to the plates. After a 1 h incubation at 37° C., plates were washed and HRP-labeled goat anti-human IgG (manufacturer: Abcam, Cat. No. Ab98595, 1:10000 dilution) was added. After a 0.5 h incubation at 37° C., plates were washed and TMB solution was added. After a 5 min incubation at room temperature in the dark, the reaction was terminated by adding 2 N H₂SO₄. Absorbance was read at 450 nm on a microplate reader.

[4] = target: T1, biotin-labeled SIRPα (Acrobiosystems, …); test: competition ELISA (FIG. 4B), blocking of biotin-labeled SIRPα (V1) binding to coated CD47-Fc
[5] = target: biotin-labeled SIRPα (V2) (Acrobiosystems, Cat. No. SI2-H82W8) (human, UniProt P78324 31-370, biotin-labeled (site not stated)); test: competition ELISA (FIG. 4C), blocking of biotin-labeled SIRPα (V2) binding to coated CD47-Fc
Method: as §1
(§2) The antibodies were 3-fold serially diluted from 200 nM and a total of nine concentration gradients were prepared.

[6] = target: membrane SIRPα on THP-1 cells (human myeloid leukemia monocytes endogenously expressing SIRPα) (human) (UniProt P78324); test: cell-based or functional assay
[7] = target: biotin-labeled SIRPα (V8) (Acrobiosystems, Cat. No. SI8-H82W6) (human, UniProt P78324 31-370, biotin-labeled (site not stated)); test: competition ELISA (FIG. 4D), blocking of biotin-labeled SIRPα (V8) binding to coated CD47-Fc
Method: as §1, §2

[8] = target: T1, biotin-labeled SIRPα (Acrobiosystems, …); test: competition ELISA (FIG. 4A), blocking of biotin-labeled SIRPα (V1) binding to coated CD47-Fc; FIG. 4A, run beside KWAR23
Method: as §1
(§3) The antibodies were 2-fold serially diluted from 83.4 nM and a total of nine concentration gradients were prepared.

[9] = target: T1, biotin-labeled SIRPα (Acrobiosystems, …); test: competition ELISA (FIG. 4B), blocking of biotin-labeled SIRPα (V1) binding to coated CD47-Fc; FIG. 4B, run beside 18D5 and 1H9
Method: as §1, §3

[10] = target: T2, SIRPα protein (Acrobiosystems, Cat. No. …); test: BLI (Octet Red96), SIRPα captured on H1S1K biosensor, antibody as analyte, 1:1 fit

Q: With KWAR23 (antibody) as the molecule, how does the Kd [1] read?
A: Its Kd is 0.0509 nM.

B1: #13 antibody (humanized anti-SIRPα antibody) (antibody, V domains shown)
VH: QVQLVQSGSELKKPGASVKVSCKASGYTFTDYSIHWVRQAPGQGLEWMGWINTETGEPTYADDFKGRFVFSLDTSVSTAYLQICSLKAEDTAVYYCSRGPLYRYDGYGLEYWGQGTLVTVSS
VL: DIVMTQSPDSLAVSLGERATINCKASQSVSNDVAWYQQKPGQPPKLLIYYASNRCTGVPDRFSGSGSGTDFTLTISSLQAEDVAVYYCHQDYISPYTFGGGTKLEIK
notes: Full antibody as tested
Q: How did the IC50 [2] turn out when B1 was run?
A: Its IC50 is 1.5 nM.

Q: And the EC50 [3]?
A: The EC50 was 0.952 nM.

B2: 1H9 (antibody, V domains shown)
VH: QVQLQQPGAERVKPGASVKMSCKASGYTFTSYWITWVKQRPGQGLEWIGDIYPGSGSTNHIEKFKSKATLTVDTSSNTAYMQLSRLTSEDSAVYYCATGYGSSYGYFDYWGQGTTLTVSS
VL: DIQMTQSPASLSASVGETVTITCRASENIYSYLAWYQQKQGKSPQLLVYTAKTLAEGVPSRFSGSGSGTQFSLKINSLQPEDFGNYYCQHQYGPPFTFGSGTRLVIK
Q: How did the IC50 [4] turn out when B2 was run?
A: The IC50 was 4.2 nM.

B3: #11 antibody (humanized anti-SIRPα antibody) (antibody, V domains shown)
VH: QVTLKESGPVLVKPTETLTLTCTVSGFSLSSHGVHWIRQPPGKALEWLAVIWSDGSTTYNSTLKSRLTISKDTSKSQVVLTMTNMDPVDTATYYCARHGNYHYNMDYWGQGTLVTVSS
VL: DIQLTQSPSFLSASVGDRVTITCRTSSRVNSGYLHWYQQKPGKAPKLLIYSTSTLASGVPSRFSGSGSGTEFTLTISSLQPEDFATYYCQQYSSYPWTFGGGTKLEIK
notes: Full antibody as tested
Q: Which IC50 [2] does the source give for B3 here?
A: Its IC50 is 0.209 nM.

Q: And the EC50 [3]?
A: Its EC50 is 0.464 nM.

B4: 18D5 (antibody, V domains shown)
VH: QVQLQQPGAELVRPGSSVKLSCKASGYTFTSYWVHWVKQRPIQGLEWIGNIDPSDSDTHYNQKFKDKASLTVDKSSSTAYMQLSSLTFEDSAVYYCVRGGTGTMAWFAYWGQGTLVTVSA
VL: DVVMTQTPLSLPVSLGDQASISCRSSQSLVHSYGNTYLYWYLQKPGQSPKLLIYRVSNRFSGVPDRFSGSGSGTDFTLKISRVEAEDLGVYFCFQGTHVPYTFGSGTKLEIK
Q: Which IC50 [4] does the source give for B4 here?
A: Its IC50 is 4.1 nM.

B5: KWAR23 (antibody, V domains shown)
VH: EVQLQQSGAELVKPGASVKLSCTASGFNIKDYYIHWVQQRTEQGLEWIGRIDPEDGETKYAPKFQDKATITADTSSNTAYLHLSSLTSEDTAVYYCARWGAYWGQGTLVTVSS
VL: QIVLTQSPAIMSASPGEKVTLTCSASSSVSSSYLYWYQQKPGSSPKLWIYSTSNLASGVPARFSGSGSGTSYSLTISSMEAEDAASYFCHQWSSYPRTFGAGTKLELK
Q: Which results are given for B5?
A: IC50 [5]: 6.4 nM; Endocytosis rate (%) [6]: 34.7%; IC50 [7]: 10.8 nM

B6: #14 antibody (humanized anti-SIRPα antibody) (antibody, human IgG1, kappa, N297A, V domains shown)
VH: QVQLQESGPGLVKPSQTLSLTCTVSGGSISSGYYWSWIRQHPGKGLEWIGYISYDGSRYNNPSLKNRVTISVDTSKNQFSLKLSSVTAADTAVYYCAREEYANYFAYWGQGTTVTVSS
VL: DIVMTQSPDSLAVSLGERATINCKSSQSLFYSSNQKNFLAWYQQKPGQPPKLLIYWASTRESGVPDRFTGSGSGTDFTLTISSVKAEDLAVYYCQQYYSYPPTFGQGTKLEIKR
Q: B6 was tested. Which IC50 [5] did it give?
A: Its IC50 is 7.8 nM.

Q: And the IC50 [8]?
A: Its IC50 is 3.4 nM.

Q: And the IC50 [9]?
A: The IC50 was 4.4 nM.

Q: And the Kd [10]?
A: Its Kd is 0.0217 nM.

Q: What about the IC50 [2] of the same molecule?
A: Its IC50 is 0.132 nM.

Q: And the EC50 [3]?
A: The EC50 was 0.683 nM.

Q: And the IC50 [7]?
A: Its IC50 is 11.5 nM.

B7: #4 antibody (humanized anti-SIRPα antibody) (antibody, V domains shown)
VH: EVQLVQSGAEVKKPGATVKISCRGSGFNIKDYYIQWVQQAPGKGLEWMGWIDPENGDTKYAPKFQGRVTITADTSTDTAYMELSSLRSEDTAVYYCYAKGPYWGQGTTLTVSS
VL: DIVMTQSPDSLAVSLGERATINCKSSQSLFYSSNQKNFLAWYQQKPGQPPKLLIYWASTRESGVPDRFTGSGSGTDFTLTISSVKAEDLAVYYCQQYYSYPPTFGGGTKLEIK
notes: Full antibody as tested
Q: Which results are given for B7?
A: IC50 [2]: 6.03 nM; EC50 [3]: 1.83 nM
